response, percent associated with the microtubule-containing fraction and Kd data for 4 molecules are collected here from publication PMC12509757.

Assay [1] deals with microtubules of HEK293T cells (microtubule fraction), P68363;P07437. As to the kind of experiment: tubulin/microtubule fractionation of HEK293T lysates (immunoblot). Particulars: chain shown with the change;. Background: Immunoblotting shows a protein as a band on a membrane.
The target in assay [2] is microtubules of osteoclasts (polymerized from endogenous tubulin) (mouse (endogenous in RAW264.7-derived osteoclasts)) (UniProt P05213). In words: co-sedimentation; tubulin/microtubule fractionation of Arhgap10 KO #28 osteoclasts expressing doxycycline-induced myc-ARHGAP10 constructs; immunoblot (Fig. S2).
Assay [3] deals with microtubules polymerized from pig brain tubulin (pig) (UniProt P02550). As to the kind of experiment: co-sedimentation; in vitro; recombinant His GST protein (1 μM in the legends, 2 μM in the methods) with increasing concentrations of microtubules from pig brain tubulin (or BSA instead) in 1X BRB80, 1 mM DTT, 20 μM paclitaxel, 5 min at room temperature; 100,000g, 15 min, 30 °C through 40% glycerol; immunoblot of supernatant and pellet; apparent Kd, one site-specific binding fit.

Positions count from the first letter of the chain named. Numbers in names are those of the source.

Chain of microtubules of HEK293T cells (microtubule fraction), P68363;P07437 (chain, as listed by the source, chain 1 of 2): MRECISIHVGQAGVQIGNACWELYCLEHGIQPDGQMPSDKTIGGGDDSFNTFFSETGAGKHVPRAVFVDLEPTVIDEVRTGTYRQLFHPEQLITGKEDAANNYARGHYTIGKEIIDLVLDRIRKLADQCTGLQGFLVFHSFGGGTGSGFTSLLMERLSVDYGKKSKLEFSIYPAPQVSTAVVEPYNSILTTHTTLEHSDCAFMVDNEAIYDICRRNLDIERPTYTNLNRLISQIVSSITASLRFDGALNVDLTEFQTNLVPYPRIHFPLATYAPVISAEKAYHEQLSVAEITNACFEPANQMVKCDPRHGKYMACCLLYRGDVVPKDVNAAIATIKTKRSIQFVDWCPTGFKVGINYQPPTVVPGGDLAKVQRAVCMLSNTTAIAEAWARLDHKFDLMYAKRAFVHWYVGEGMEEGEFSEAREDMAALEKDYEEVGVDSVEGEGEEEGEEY
Chain of microtubules of HEK293T cells (microtubule fraction), P68363;P07437 (chain, as listed by the source, chain 2 of 2): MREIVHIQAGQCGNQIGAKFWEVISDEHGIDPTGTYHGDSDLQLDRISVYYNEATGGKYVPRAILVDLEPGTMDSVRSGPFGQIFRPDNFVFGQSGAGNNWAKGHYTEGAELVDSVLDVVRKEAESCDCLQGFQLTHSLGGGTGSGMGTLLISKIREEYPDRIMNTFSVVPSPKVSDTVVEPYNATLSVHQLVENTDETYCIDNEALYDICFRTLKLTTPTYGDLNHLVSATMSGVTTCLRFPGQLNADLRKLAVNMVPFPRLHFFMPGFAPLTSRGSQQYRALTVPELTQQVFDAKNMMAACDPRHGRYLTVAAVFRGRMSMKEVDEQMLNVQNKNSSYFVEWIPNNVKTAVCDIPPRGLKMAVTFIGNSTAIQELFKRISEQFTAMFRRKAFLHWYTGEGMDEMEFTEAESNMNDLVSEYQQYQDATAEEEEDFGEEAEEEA
Chain of microtubules of osteoclasts (polymerized from endogenous tubulin) (mouse (endogenous in RAW264.7-derived osteoclasts)) (P05213 whole entry, chain 1 of 2): as the sequence (chain, as listed by the source, chain 1 of 2) above
Chain of microtubules of osteoclasts (polymerized from endogenous tubulin) (mouse (endogenous in RAW264.7-derived osteoclasts)) (P99024 whole entry, chain 2 of 2, further chain): as the sequence (chain, as listed by the source, chain 2 of 2) above

B1: myc-tagged full-length human ARHGAP10, WT (HEK293T), A1A4S6 K37E; K41E; K44E (protein)
chain: MGLQPLEFSDCYLDSPWFRERIRAHEAELERTNKFIEELIEDGENLIAATKSLSVAQRKFAHSLRDFKFEFIGDAVTDDERCIDASLREFSNFLKNLEEQREIMALSVTETLIKPLEKFRKEQLGAVKEEKKKFDKETEKNYSLIDKHLNLSAKKKDSHLQEADIQVEQNRQHFYELSLEYVCKLQEIQERKKFEFVEPMLSFFQGMFTFYHQGHELAKDFNHYKMELQINIQNTRNRFEGTRSEVEELMNKIRQNPKDHKRASQFTAEGYLYVQEKRPAPFGSSWVKHYCMYRKAAKKFNMIPFEHRSGGKLGDGEVFFLKECTKRHTDSIDRRFCFDIEAADRPGVSLTMQAFSEEERKQWLEALGGKEALSHSFNTAIIPRPEGNAQLDKMGFTIIRKCISAVETRGINDQGLYRVVGVSSKVQRLLSMLMDVKTCNEVDLENSADWEVKTITSALKQYLRSLPEPLMTYELHGDFIVPAKSGSPESRVNAIHFLVHKLPEKNKEMLDILVKHLTNVSNHSKQNLMTVANLGVVFGPTLMRPQEETVAALMDLKFQNIVVEILIENHEKIFRTPPDTTFPEPTCLSASPPNAPPRQSKRQGQRTKRPVAVYNLCLELEDGDNPYPSKEDTPTSSLDSLSSPSPVTTAVPGPPGPDKNHLLADGGSFGDWASTIPGQTRSSMVQWLNPQSPTTTSSNSAVTPLSPGSSPFPFSPPATVADKPPESIRSRKARAVYPCEAEHSSELSFEIGAIFEDVQTSREPGWLEGTLNGKRGLIPQNYVKLL
With B1, the response in assay [1] (parent: 59.1) came out at 26 % in MT.

B2: myc-tagged full-length ARHGAP10, WT, re-expressed in Arhgap10 KO osteoclasts (natural protein)
chain: B1 chain with E37K, E41K, E44K
In turn, B2 yielded a percent associated with the microtubule-containing fraction in assay [2] of 50%.

B3: myc-tagged BAR-PH (aa 1-388) of ARHGAP10, WT, A1A4S6 K37E; K41E; K44E (protein)
chain: MGLQPLEFSDCYLDSPWFRERIRAHEAELERTNKFIEELIEDGENLIAATKSLSVAQRKFAHSLRDFKFEFIGDAVTDDERCIDASLREFSNFLKNLEEQREIMALSVTETLIKPLEKFRKEQLGAVKEEKKKFDKETEKNYSLIDKHLNLSAKKKDSHLQEADIQVEQNRQHFYELSLEYVCKLQEIQERKKFEFVEPMLSFFQGMFTFYHQGHELAKDFNHYKMELQINIQNTRNRFEGTRSEVEELMNKIRQNPKDHKRASQFTAEGYLYVQEKRPAPFGSSWVKHYCMYRKAAKKFNMIPFEHRSGGKLGDGEVFFLKECTKRHTDSIDRRFCFDIEAADRPGVSLTMQAFSEEERKQWLEALGGKEALSHSFNTAIIPRPEGN
Turning to B3, the response in assay [1] (parent: 60) was determined as 32.7 % in MT.

B4: His GST BAR-PH (aa 1-388) of ARHGAP10, WT (domain or fragment)
chain: B3 chain with E37K, E41K, E44K
Regarding B4, the Kd in assay [3] came to 1.27 µM.
